Measurements taken from publication PMC6061880.

Legend:
Assay in all cases: EMSA
Details in all cases: 10 mM Tris-Cl pH 7.5, 10 mM MgCl2, 100 mM KCl, 0.5 ug/ul yeast RNA, 7.5% glycerol, SUPERase In; 5 nM RNA; 30 min at 37 C; 6% native PAGE at 4 C
[1] = system: RsmN (Pseudomonas aeruginosa)
[2] = system: T1, RsmN (Pseudomonas aeruginosa), ORF:fe30c157
T1 sequence: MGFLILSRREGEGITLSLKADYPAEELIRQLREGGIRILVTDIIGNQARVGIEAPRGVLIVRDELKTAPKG

[3] = target: RsmA (Pseudomonas aeruginosa) (UniProt O69078)
Sequence of RsmA (Pseudomonas aeruginosa) (O69078 whole entry): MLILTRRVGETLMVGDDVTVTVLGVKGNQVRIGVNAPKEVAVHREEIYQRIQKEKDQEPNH

Row | Substance | Kd [1] | Kd [2] | binding [3] | further results
1 | 5' CrcZ | 112 nM |  |  | 
2 | GGAAACUCUGUCCGCUGUGAUGGAUAACGAAGCGGAUGAACUCGAGUUGCGGCGGGUGCUCGCAGCUUGCGGCGAGGAUGCCGAGCUGCGUUCCACCUGGUCGCGUUACCAGUUGGCGCGGUCCGUCAUGCACCGCGAGCCUACCCUGCCGAAGCUGGAUAUCGCUGCGGCGGUCUCUGCUGCCCUGGCCGACGAGGCCGCUCCGCCGAAAGCGGAGAAGGGACCGUGGCGGAUGGUCGGUCGGGGGGGGGUUUUUUUU [mucA internal RNA] |  | 148 nM |  | Kd [3]: binds
3 | GGACAAAAUAAGCAAAUGGAGCGUAUGACCAUGGACAAACCGGCCUCGCGGCAUUUCAGCGUCUUGAUCAUCGAUGAUGAACCCCAGGUGACCUCGGAACUCCGCGAACUGCUGGAAAACGGGGGGGGGUUUUUUUU [pprB leader RNA] |  | 227 nM | binds | 
4 | GGCAUCAGCGACCAAAGCAAUCCGUUUGCUAUUGAACUCCCAGCCUGGGAGAUAUCCCUGAAGCGACUGGCUCAAGGGACGGGUCGACAAACAAAAACAACAAGCCCGAAAUCAUAAUAAAAACAAAGCACGCACCUACUUGGGGGGGGGUUUUUUUU [3' CrcZ] |  |  | binds | binding [2]: no binding
5 | GGGUCAGGACAUUGCGCAGGAAGCGCCAAAGACAAUACGGAAACUCAGGGAAUCCACCAUGGAUGGUGGCGUAGCACGGAUGUCAGGAUAGAGGUCUGCAAAACCCCGCCCAAAAGGCGGGGGGGGGUUUUUUUU [RsmY full length] |  |  | binds | binding [2]: binds
6 | GGUAACGACUCCAGCACAACAAAAACAAAAUCGCGGAGGCGCAGCUAACUGAUUCUUUUGGAGAGGAGUUGCUGUCGGGACCCGUCCCGCAGCCAGUCGGAAGAAGAAUAAAACUGCCUUGAGGCAGCGCACAGACUGGUUGGAUCGCUCGACGAUCAUGGCAGCAUCAGGGGGGGGGUUUUUUUU [5' CrcZ] |  | 112 nM | no binding | 
7 | fhA1 leader RNA | 61 nM |  |  | 
8 | mucA internal RNA | 148 nM |  |  | 
9 | pprB leader RNA | 227 nM |  |  | 
10 | pslA RNA (non-specific) | > 1000 nM |  |  | 
